From article PMC10910794, “Toxoplasma sortilin interacts with secretory proteins and it is critical for parasite proliferation” (Parasites & Vectors, 2024)

Assays:
[1] = molecular target: T1, GST-Vps10 (Vps10 subdomain of T. gondii sortilin) (Toxoplasma gondii, UniProt A0A7J6KCY2); experiment: bio-layer interferometry, biotinylated GST-Vps10 on SSA sensor; assay type: binding; settings: AF38469 at 100-500 nM diluted in DMSO; PBS, DMSO as negative control
T1 construct: gene TGRH88_014830; Vps10 subdomain (160-667 aa) of 1033-aa sortilin; GST-tagged from pGEX-4T-1, E. coli BL21 (DE3); tag kept; biotinylated with NHS-PEG12-biotin

[2] = molecular target: T2, His-TgSAG2 (Toxoplasma gondii); experiment: BLI
T2 chain: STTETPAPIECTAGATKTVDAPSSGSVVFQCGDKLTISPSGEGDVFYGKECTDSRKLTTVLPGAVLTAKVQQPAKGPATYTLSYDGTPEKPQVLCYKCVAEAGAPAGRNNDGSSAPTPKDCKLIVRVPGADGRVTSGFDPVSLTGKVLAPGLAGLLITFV

[3] = molecular target: T3, His-TgROP9 (Toxoplasma gondii, UniProt S8F3X8 1-353); experiment: BLI
T3 chain: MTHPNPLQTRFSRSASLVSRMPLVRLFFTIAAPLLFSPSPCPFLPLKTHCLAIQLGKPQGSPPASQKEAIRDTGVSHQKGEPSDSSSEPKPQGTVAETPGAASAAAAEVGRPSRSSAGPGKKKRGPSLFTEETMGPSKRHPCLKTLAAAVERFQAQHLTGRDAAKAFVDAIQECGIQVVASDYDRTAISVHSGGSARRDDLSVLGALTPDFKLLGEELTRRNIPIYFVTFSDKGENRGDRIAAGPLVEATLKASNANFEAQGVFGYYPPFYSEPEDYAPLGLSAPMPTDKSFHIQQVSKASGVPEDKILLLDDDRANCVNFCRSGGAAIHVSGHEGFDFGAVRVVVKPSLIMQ

[4] = molecular target: T4, His-TgMIC3 (Toxoplasma gondii, UniProt A0A7J6KDB0 27-383); experiment: BLI
T4 chain: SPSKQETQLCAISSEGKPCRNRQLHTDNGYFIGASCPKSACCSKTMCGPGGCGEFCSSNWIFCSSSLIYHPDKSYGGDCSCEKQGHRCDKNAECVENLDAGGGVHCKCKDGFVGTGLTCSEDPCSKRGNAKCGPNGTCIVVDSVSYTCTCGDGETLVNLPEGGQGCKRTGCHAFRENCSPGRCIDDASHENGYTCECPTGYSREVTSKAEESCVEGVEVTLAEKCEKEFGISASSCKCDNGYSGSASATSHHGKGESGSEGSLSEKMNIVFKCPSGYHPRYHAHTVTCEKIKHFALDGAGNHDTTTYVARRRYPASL

Q: For `Cc1cccc(NC(=O)c2ccc(C(F)(F)F)cc2C(=O)O)n1` [AF38469], which “bio-layer interferometry, biotinylated GST-Vps10 on SSA sensor” value [1] is on record?
A: only the Vps10 subdomain could bind to AF38469 with high affinity

B1: GST-tagged recombinant sortilin protein (natural protein)
chain: MYTSRTPHGGLRRWPLSRSSVSAVASRVLSRSVAFHRRLASFLLSRKKTPLCALSSRPSGLQASSGVQTVTMAHSFARGRPPAAGRTLAVFLAFLAVLSPSLLPEFFSEDAQKRESSVLVANAASYANKKVSVSEVSFDSHIEDIQWCGTDHRTILLKTRRGRLYRSQDGGKSWTEITDLLKSSEAATGTVAVDSIIVSPVDKRVVLIVGSKRNHFISEDSAATFRRLKYKNTIHNFHFHPTRPKYAILSTWTDACYSGSGTASRAQSQQDCNHQLFYTRDLGRSFKLVADYVVQFSWGDKKLGNTDHIFFTQHRGRSGDQPRYGGWSKNVDLMYTPDFGATITRLVYRGNKFLLSNGYFFVAKVKDAAKQTVSLLVSTDGGKSFQMAKLPVEIEERSYTVLDTSEDAIMLHVNHGHDNKGDTGNVYISDAKGVRYSLSLPNNIRTSTGECEFDKVLSLEGVYLANFKDSVDSSASVDGGQQGDLEKLEEEIEEEAEGVQVDLEKKHKSVATRSRQEEVIRTVISFDKGGVWSYLKAPKVDSRGQKIDCPPDRCWLHLNGITRFSDFAPFYSVENAVGIIMGTGNVGSYLRPEKDEANTYLSRDGGVSWIEAHKGAFIYEMGDHGGLLVMADDTKKTNQVVFSWNEGQSWYDFELGAAPLFVDNIVIEPNASSVEFLLYGKREQDSAGVLFHLDFNALNQQQCKGIWAADSVSSDYETWSPSDGRAGGERCILGKHITYTRRKQTSECFNGRDFDRPKVSKVCPCTMEDYECEFGFTRAIGSTQCVATDAAAAAAATATGLAQFADESDAAAAAACTSSSFFYTSAYRKVPGDVCEGGWMPEKVAVPCPAHSPVSRGGKTVLLLLLFIVVVMVVINYLAKTGRLKKFFRNAGFDSFANVSYGLVGASAGGPGGWLDQEAGESRRGEELGERSKYEPELGFIEAEQDENEEDAPTLMNYGNAAGGQRTSGMSSRSPKPTEDFELDDSRPLFPSHVSSRETQGSSGLHPRSTSTENEPIPRLAPPRFDEDNVELL
Q: With B1 as the molecule, how does the Kd [2] read?
A: 915 nM

Q: And the Kd [3]?
A: 0.963 nM

Q: What about the Kd [4] of the same molecule?
A: 0.847 nM
